Assay results from PMC4697752.

B1: Matrix metalloproteinase-9 (MMP-9): mS38 (protein)
parent chain: MSLWQPLVLVLLVLGCCFAAPRQRQSTLVLFPGDLRTNLTDRQLAEEYLYRYGYTRVAEMRGESKSLGPALLLLQKQLSLPETGELDSATLKAMRTPRCGVPDLGRFQTFEGDLKWHHHNITYWIQNYSEDLPRAVIDDAFARAFALWSAVTPLTFTRVYSRDADIVIQFGVAEHGDGYPFDGKDGLLAHAFPPGPGIQGDAHFDDDELWSLGKGVVVPTRFGNADGAACHFPFIFEGRSYSACTTDGRSDGLPWCSTTANYDTDDRFGFCPSERLYTQDGNADGKPCQFPFIFQGQSYSACTTDGRSDGYRWCATTANYDRDKLFGFCPTRADSTVMGGNSAGELCVFPFTFLGKEYSTCTSEGRGDGRLWCATTSNFDSDKKWGFCPDQGYSLFLVAAHEFGHALGLDHSSVPEALMYPMYRFTEGPPLHKDDVNGIRHLYGPRPEPEPRPPTTTTPQPTAPPTVCPTGPPTVHPSERPTAGPTGPPSAGPTGPPTAGPSTATTVPLSPVDDACNVNIFDAIAEIGNQLYLFKDGKYWRFSEGRGSRPQGPFLIADKWPALPRKLDSVFEERLSKKLFFFSGRQVWVYTGASVLGPRRLDKLGLGADVAQVTGALRSGRGKMLLFSGRRLWRFDVKAQMVDPRSASEVDRMFPGVPLDTHDVFQYREKAYFCQDRFYWRVSSRSELNQVDQVGYVTYDILQCPED
B2: Matrix metalloproteinase-9 (MMP-9): mS38/N120S (protein)
parent chain: B1 parent chain
B3: Matrix metalloproteinase-9 (MMP-9): N120S (protein)
parent chain: B1 parent chain

Assay: secreted mCherry-tagged MMP-9, microplate reader
Details: glycan lost; control: wild type

Protein | expression_or_secretion
B1 | no change
B2 | decreases
B3 | decreases
